Data taken from US20100248359A1 (Chugai, published 2010).
Read-outs that look alike come from different tables or passages of the source.

Columns and labels:
full-length human GPC3 [1] = biological target: T1, full-length human GPC3 (human, UniProt P51654 25-554); assay: flow cytometry, antibody at 5 µg/mL, CHO cells expressing human GPC3 (column CHO/human GPC3)
T1 construct: On CHO (DXB11) or SK-HEP-1 (SK-03) transfectants; also used here for the GPC3 on the hepatoma lines HepG2 and HuH-7; also called human glypican 3
T1 sequence (P51654 25-554 limits assumed): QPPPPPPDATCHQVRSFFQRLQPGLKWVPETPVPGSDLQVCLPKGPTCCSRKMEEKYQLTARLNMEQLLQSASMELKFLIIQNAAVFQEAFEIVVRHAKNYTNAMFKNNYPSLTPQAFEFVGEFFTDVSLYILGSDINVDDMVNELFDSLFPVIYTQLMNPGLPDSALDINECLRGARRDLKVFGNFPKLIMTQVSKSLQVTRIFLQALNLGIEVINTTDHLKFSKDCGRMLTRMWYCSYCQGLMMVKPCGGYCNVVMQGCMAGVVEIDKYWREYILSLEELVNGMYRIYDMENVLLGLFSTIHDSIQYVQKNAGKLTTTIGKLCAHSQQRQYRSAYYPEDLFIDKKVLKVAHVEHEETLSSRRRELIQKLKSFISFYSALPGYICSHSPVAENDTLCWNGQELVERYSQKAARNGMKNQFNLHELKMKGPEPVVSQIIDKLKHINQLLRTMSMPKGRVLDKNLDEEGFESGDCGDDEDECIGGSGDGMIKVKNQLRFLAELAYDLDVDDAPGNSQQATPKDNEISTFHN

[2] = biological target: T2, soluble form of GPC3 core protein (human, UniProt P51654 25-563); assay: ELISA on plate coated with soluble GPC3 core protein
T2 construct: not shown: His tag added to the C-terminus

full-length human GPC3 [3] = biological target: T1, full-length human GPC3; assay: flow cytometry, antibody at 5 µg/mL, HuH-7 cells
full-length human GPC3 [4] = biological target: T1, full-length human GPC3; assay: flow cytometry, antibody at 5 µg/mL, HepG2 cells
[5] = biological target: T3, GC-3 (GST fusion of GPC3 Ala524 to Lys563) (human, UniProt P51654 524-563); assay: Western blotting of GST-fusion proteins, reducing SDS-PAGE
T3 construct: not shown: GST as encoded by pGEX-4T-3 (Amersham), N-terminal to the GPC3 peptide
T3 chain: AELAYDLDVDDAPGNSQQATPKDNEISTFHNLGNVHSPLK

[6] = biological target: T2, soluble form of GPC3 core protein; assay: competitive ELISA on coated soluble GPC3 core protein; labelled competitor biotin-L9G11;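 further: Biotin-labelled antibody added as 10 µL at 10 µg/mL for 1 h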
[7] = biological target: T2, soluble form of GPC3 core protein; assay: competitive ELISA on coated soluble GPC3 core protein; labelled competitor biotin-M1E7;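 further: Biotin-labelled antibody added as 10 µL at 10 µg/mL for 1 h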
[8] = biological target: T2, soluble form of GPC3 core protein; assay: competitive ELISA on coated soluble GPC3 core protein; labelled competitor biotin-M11F1;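 further: Biotin-labelled antibody added as 10 µL at 10 µg/mL for 1 h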
full-length human GPC3 [9] = biological target: T1, full-length human GPC3; assay: flow cytometry, antibody at 5 µg/mL, HepG2 cells; remark: listed apart in the source
[10] = biological target: T2, soluble form of GPC3 core protein; assay: competitive ELISA on coated soluble GPC3 core protein; labelled competitor biotin-M6B1;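 further: Biotin-labelled antibody added as 10 µL at 10 µg/mL for 1 h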
[11] = biological target: T2, soluble form of GPC3 core protein; assay: competitive ELISA on coated soluble GPC3 core protein; labelled competitor biotin-M3C11;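 further: Biotin-labelled antibody added as 10 µL at 10 µg/mL for 1 h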
full-length human GPC3 [12] = biological target: T1, full-length human GPC3; assay: flow cytometry, antibody at 5 µg/mL, CHO cells expressing human GPC3 (column CHO/human GPC3); remark: listed apart in the source
[13] = biological target: T2, soluble form of GPC3 core protein; assay: ELISA on plate coated with soluble GPC3 core protein; remark: listed apart in the source
[14] = biological target: T2, soluble form of GPC3 core protein; assay: competitive ELISA on coated soluble GPC3 core protein; labelled competitor biotin-M5B9;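 further: Biotin-labelled antibody added as 10 µL at 10 µg/mL for 1 h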
full-length human GPC3 [15] = biological target: T1, full-length human GPC3; assay: BIACORE; the form of GPC3 used is not given
[16] = biological target: T2, soluble form of GPC3 core protein; assay: competitive ELISA on coated soluble GPC3 core protein; labelled competitor biotin-M10D2;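 further: Biotin-labelled antibody added as 10 µL at 10 µg/mL for 1 h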
full-length human GPC3 [17] = biological target: T1, full-length human GPC3; assay: flow cytometry, antibody at 5 µg/mL, HuH-7 cells; remark: listed apart in the source
[18] = biological target: T2, soluble form of GPC3 core protein; assay: competitive ELISA on coated soluble GPC3 core protein; labelled competitor biotin-M18D4;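 further: Biotin-labelled antibody added as 10 µL at 10 µg/mL for 1 h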
[19] = biological target: T2, soluble form of GPC3 core protein; assay: ELISA on plate coated with soluble GPC3 core protein; antibody from COS7 culture supernatant [middle left panel]
[20] = biological target: T2, soluble form of GPC3 core protein; assay: ELISA on plate coated with soluble GPC3 core protein; antibody from COS7 culture supernatant [upper right panel]
[21] = biological target: T2, soluble form of GPC3 core protein; assay: ELISA on GPC3 (the legend says only GPC3; the filing's ELISA uses plates coated with soluble GPC3 core protein) [lower panel]
[22] = biological target: T2, soluble form of GPC3 core protein; assay: ELISA on plate coated with soluble GPC3 core protein; antibody from COS7 culture supernatant [lower left panel]

B1: GC194 (antibody, V domains shown)
VH: EVQLVETGGGLVQPKGSLKLSCAASGFTFNASAMNWVRQAPGKGLEWVARIRSKSNNYAIYYADSVKDRFTISRDDSQSMLYLQMNNLKTEDTAMYYCVRDPGYYGNPWFAYWGQGTLVTVSA
VL: DIVMTQAAFSNPVTLGTSASISCRSSKSLLHSYDITYLYWYLQKPGQSPQLLIYQMSNLASGVPDRFSSSGSGTDFTLRISRVEAEDVGVYYCAQNLELPPTFGGGTKLEIK
full-length human GPC3 [1]
  FACS X-mode value of the histogram: 5
[2]
  EC50: 3830 pM
full-length human GPC3 [3]
  FACS X-mode value of the histogram: 1.5
full-length human GPC3 [4]
  FACS X-mode value of the histogram: 7.9

B2: M3C11 (antibody, human IgG1, kappa, V domains shown)
VH: EVQLVESGGGLVKPGGSLKLSCAASGFTFSRYAMSWVRQIPEKILEWVAAIDSSGGDTYYLDTVKDRFTISRDNANNTLHLQMRSLRSEDTALYYCVRQGGAYWGQGTLVTVSA
VL: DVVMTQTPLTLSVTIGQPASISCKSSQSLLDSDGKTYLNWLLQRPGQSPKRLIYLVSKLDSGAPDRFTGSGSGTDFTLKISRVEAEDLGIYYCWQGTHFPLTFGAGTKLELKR
notes: Mouse monoclonal from hybridoma
[5]
  binding result: no binding
[6]
  Inhibition of the binding of indicated biotin-Mab to sGPC3 core (%): 33.1%
[7]
  Inhibition of the binding of indicated biotin-Mab to sGPC3 core (%): 96.2%
[8]
  Inhibition of the binding of indicated biotin-Mab to sGPC3 core (%): 12%
full-length human GPC3 [9]
  FACS X-mode value of the histogram: 59
[10]
  Inhibition of the binding of indicated biotin-Mab to sGPC3 core (%): 11.2%
[11]
  Inhibition of the binding of indicated biotin-Mab to sGPC3 core (%): 96.8%
full-length human GPC3 [12]
  FACS X-mode value of the histogram: 83
[13]
  EC50: 120 pM
[14]
  Inhibition of the binding of indicated biotin-Mab to sGPC3 core (%): 9.1%
full-length human GPC3 [15]
  Kd: 300 pM
  koff: 6.5e-05 s⁻¹
  kon: 250000 M⁻¹ s⁻¹
[16]
  Inhibition of the binding of indicated biotin-Mab to sGPC3 core (%): 39.9%
full-length human GPC3 [17]
  FACS X-mode value of the histogram: 9
[18]
  Inhibition of the binding of indicated biotin-Mab to sGPC3 core (%): 10.3%

B3: G34P (antibody, V domains shown)
VH: QVQLVQSGAEVKKPGASVKVSCKASGYTFTDYEMHWVRQAPGQGLEWMGALDPKTGDTAYSQKFKGRVTLTADKSTSTAYMELSSLTSEDTAVYYCTRFYSYTYWGQGTLVTVSS
VL: DVVMTQSPLSLPVTPGEPASISCRSSQSLVHSNPNTYLHWYLQKPGQSPQLLIYKVSNRFSGVPDRFSGSGSGTDFTLKISRVEAEDVGVYYCSQNTHVPPTFGQGTKLEIK
notes: also called modified humanized GC33 (H chain ver.k, L chain G34P)
[19]
  EC50 (read off the curve): ~0.03 µg/mL

B4: modified humanized GC33 (H chain ver.k, L chain G34E) (antibody, human IgG1, V domains shown)
VH: QVQLVQSGAEVKKPGASVKVSCKASGYTFTDYEMHWVRQAPGQGLEWMGALDPKTGDTAYSQKFKGRVTLTADKSTSTAYMELSSLTSEDTAVYYCTRFYSYTYWGQGTLVTVSS
VL: DVVMTQSPLSLPVTPGEPASISCRSSQSLVHSNENTYLHWYLQKPGQSPQLLIYKVSNRFSGVPDRFSGSGSGTDFTLKISRVEAEDVGVYYCSQNTHVPPTFGQGTKLEIK
notes: COS7 supernatant; human IgG1/kappa
[20]
  EC50 (read off the curve): ~0.02 µg/mL

B5: modified humanized GC33 (H chain ver.k, L chain G34Q) (antibody, human IgG1, V domains shown)
VH: QVQLVQSGAEVKKPGASVKVSCKASGYTFTDYEMHWVRQAPGQGLEWMGALDPKTGDTAYSQKFKGRVTLTADKSTSTAYMELSSLTSEDTAVYYCTRFYSYTYWGQGTLVTVSS
VL: DVVMTQSPLSLPVTPGEPASISCRSSQSLVHSNQNTYLHWYLQKPGQSPQLLIYKVSNRFSGVPDRFSGSGSGTDFTLKISRVEAEDVGVYYCSQNTHVPPTFGQGTKLEIK
notes: as for B4
[19]
  EC50 (read off the curve): ~0.02 µg/mL

B6: modified humanized GC33 (H chain ver.k, L chain G34H) (antibody, human IgG1, V domains shown)
VH: QVQLVQSGAEVKKPGASVKVSCKASGYTFTDYEMHWVRQAPGQGLEWMGALDPKTGDTAYSQKFKGRVTLTADKSTSTAYMELSSLTSEDTAVYYCTRFYSYTYWGQGTLVTVSS
VL: DVVMTQSPLSLPVTPGEPASISCRSSQSLVHSNHNTYLHWYLQKPGQSPQLLIYKVSNRFSGVPDRFSGSGSGTDFTLKISRVEAEDVGVYYCSQNTHVPPTFGQGTKLEIK
notes: as for B4
[20]
  EC50 (read off the curve): ~0.02 µg/mL

B7: humanized GC33 H chain ver.i / L chain ver.a (antibody, V domains shown)
VH: QVQLVQSGAEVKKPGASVKVSCKASGYTFTDYEMHWVRQAPGQGLEWMGALDPKTGDTAYSQKFKGRVTLTADESTSTAYMELSSLRSEDTAVYYCTRFYSYTYWGQGTLVTVSS
VL: DVVMTQSPLSLPVTPGEPASISCRSSQSLVHSNGNTYLHWYLQKPGQSPQLLIYKVSNRFSGVPDRFSGSGSGTDFTLKISRVEAEDVGVYYCSQNTHVPPTFGQGTKLEIK
[21]
  EC50 (read off the curve): ~0.03 µg/mL

B8: modified humanized GC33 (H chain ver.k, L chain G34N) (antibody, human IgG1, V domains shown)
VH: QVQLVQSGAEVKKPGASVKVSCKASGYTFTDYEMHWVRQAPGQGLEWMGALDPKTGDTAYSQKFKGRVTLTADKSTSTAYMELSSLTSEDTAVYYCTRFYSYTYWGQGTLVTVSS
VL: DVVMTQSPLSLPVTPGEPASISCRSSQSLVHSNNNTYLHWYLQKPGQSPQLLIYKVSNRFSGVPDRFSGSGSGTDFTLKISRVEAEDVGVYYCSQNTHVPPTFGQGTKLEIK
notes: as for B4
[19]
  EC50 (read off the curve): ~0.02 µg/mL

B9: modified humanized GC33 (H chain ver.k, L chain G34F) (antibody, human IgG1, V domains shown)
VH: QVQLVQSGAEVKKPGASVKVSCKASGYTFTDYEMHWVRQAPGQGLEWMGALDPKTGDTAYSQKFKGRVTLTADKSTSTAYMELSSLTSEDTAVYYCTRFYSYTYWGQGTLVTVSS
VL: DVVMTQSPLSLPVTPGEPASISCRSSQSLVHSNFNTYLHWYLQKPGQSPQLLIYKVSNRFSGVPDRFSGSGSGTDFTLKISRVEAEDVGVYYCSQNTHVPPTFGQGTKLEIK
notes: as for B4
[20]
  EC50 (read off the curve): ~0.02 µg/mL

B10: humanized GC33 H chain ver.h / L chain ver.a (antibody, V domains shown)
VH: QVQLVESGAEVKKPGASVKVSCKASGYTFTDYEMHWVRQAPGQGLEWMGALDPKTGDTAYSQKFKGRVTLTADKSTSTAYMELSSLTSEDTAVYYCTRFYSYTYWGQGTLVTVSS
VL: DVVMTQSPLSLPVTPGEPASISCRSSQSLVHSNGNTYLHWYLQKPGQSPQLLIYKVSNRFSGVPDRFSGSGSGTDFTLKISRVEAEDVGVYYCSQNTHVPPTFGQGTKLEIK
[21]
  EC50 (read off the curve): ~0.03 µg/mL

B11: GC33 mouse H chain variable region / humanized L chain ver.a (antibody, V domains shown)
VH: QVQLQQSGAELVRPGASVKLSCKASGYTFTDYEMHWVKQTPVHGLKWIGALDPKTGDTAYSQKFKGKATLTADKSSSTAYMELRSLTSEDSAVYYCTRFYSYTYWGQGTLVTVSA
VL: DVVMTQSPLSLPVTPGEPASISCRSSQSLVHSNGNTYLHWYLQKPGQSPQLLIYKVSNRFSGVPDRFSGSGSGTDFTLKISRVEAEDVGVYYCSQNTHVPPTFGQGTKLEIK
notes: also called mouse/ver.a
[21]
  EC50 (read off the curve): ~0.03 µg/mL

B12: G34V (antibody, V domains shown)
VH: QVQLVQSGAEVKKPGASVKVSCKASGYTFTDYEMHWVRQAPGQGLEWMGALDPKTGDTAYSQKFKGRVTLTADKSTSTAYMELSSLTSEDTAVYYCTRFYSYTYWGQGTLVTVSS
VL: DVVMTQSPLSLPVTPGEPASISCRSSQSLVHSNVNTYLHWYLQKPGQSPQLLIYKVSNRFSGVPDRFSGSGSGTDFTLKISRVEAEDVGVYYCSQNTHVPPTFGQGTKLEIK
notes: also called modified humanized GC33 (H chain ver.k, L chain G34V)
[22]
  EC50 (read off the curve): ~0.02 µg/mL
